Experiment [1] has as its target T1, hSIRPα expressed on primary human cells (human, UniProt P78324 31-504).
T1 construct: whole, on cells; also called hSIRPα on primary human CD14+ monocytes; on primary human granulocytes
The experiment can be described thus: flow cytometry, blockade of DyLight488-hCD47/Fc binding to CD14+ enriched monocytes, donor 1. How it is done:
In addition, the ability of hSIRPα.50A to block the interaction between hSIRPα and recombinant hCD47/Fc-protein was assessed. For this purpose, CD14+ monocytes were isolated from Ficoll-purified human peripheral blood mononuclear cells (PBMCs) using RosetteSep human monocyte enrichment cocktail (Stemcell). The percentage of monocytes present after the enrichment was determined by flow cytometry on the FACSVerse (BD Biosciences) based on CD14 staining using an APC-Cy7-conjugated mouse-anti-human CD14 detection antibody (BD Biosciences). […] After this labeling procedure, cells were washed two times, resuspended in PBS/1% BSA containing 0.1 μg/mL DAPI (BioLegend), and analysed by flow cytometry on the FACSVerse (BD Biosciences). Data were processed and analysed with FlowJo V10 software (FlowJo, LLC).
(§1) To assess the blocking ability of hSIRPα.50A, CD14+ enriched monocytes cells were seeded in 96-well round bottomed tissue culture plates and incubated for 45 minutes with FcR Blocking Reagent (Miltenyi Biotec) and hSIRPα.50A antibody (200 μg/mL and dilutions thereof) in PBS/1% BSA at 4° C. […] After this labeling procedure, cells were washed two times, resuspended in PBS/1% BSA containing 0.1 μg/mL DAPI (BioLegend), and analysed by flow cytometry on the FACSVerse (BD Biosciences). Data were processed and analysed with FlowJo V10 software (FlowJo, LLC).
On the technique in general: Flow cytometry measures light scatter and fluorescence of single cells or particles in a stream.

The target in experiment [2] is T2, human SIRPα variant 1 (human, UniProt P78324 31-504).
T2 construct: full length ORF on transfected CHO-K1 or HEK293 cells; entry includes the signal peptide; also called hSIRPαV1; SIRPαV1
T2 sequence (P78324 31-504 limits assumed, change not shown): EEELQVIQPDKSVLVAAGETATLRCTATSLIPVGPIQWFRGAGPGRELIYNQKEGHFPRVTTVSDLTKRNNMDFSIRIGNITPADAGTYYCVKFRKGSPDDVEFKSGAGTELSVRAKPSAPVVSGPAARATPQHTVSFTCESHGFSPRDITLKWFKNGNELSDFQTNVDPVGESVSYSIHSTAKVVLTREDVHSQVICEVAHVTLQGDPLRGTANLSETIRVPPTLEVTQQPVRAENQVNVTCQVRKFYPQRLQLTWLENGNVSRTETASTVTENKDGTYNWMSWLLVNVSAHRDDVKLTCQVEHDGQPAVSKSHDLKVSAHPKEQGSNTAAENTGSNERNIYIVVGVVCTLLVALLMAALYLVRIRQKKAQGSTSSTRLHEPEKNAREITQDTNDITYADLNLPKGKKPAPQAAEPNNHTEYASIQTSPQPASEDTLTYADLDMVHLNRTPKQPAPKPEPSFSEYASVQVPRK
The experiment can be described thus: flow cytometry, blockade of DyLight488-hCD47/Fc binding to U-937 cells. As to the method: as §1, with “For this purpose, THP-1 (ATCC TIB-202) and U-937 (ATCC CRL-1593.2) monocyte cell lines were used as” for “To assess”, “source” for “blocking ability”, “hSIRPα in the assay. THP-1 and U-937” for “hSIRPα.50A, CD14+ enriched monocytes”, “FACSCanto II” for “FACSVerse”
(§2) As depicted in FIG. 4 and the following Table 11, binding of recombinant hCD47 fused to an Fc domain of human IgG1 was monitored in the presence of increasing amounts of the hSIRPα.50A antibody. Antibody hSIRPα.50A blocked the hSIRPα/hCD47 interaction, using the flow cytometry-based method described above. […] IC50 values represent the concentration at which half of the inhibition is observed.

For experiment [3], the target named is T3, human SIRPα variant 2 (human, UniProt P78324 31-504).
T3 construct: full length ORF on transfected CHO-K1 cells; also called hSIRPαV2; SIRPαV2
T3 sequence (P78324 other isoform, or with tags, fused parts or gaps mutant limits assumed): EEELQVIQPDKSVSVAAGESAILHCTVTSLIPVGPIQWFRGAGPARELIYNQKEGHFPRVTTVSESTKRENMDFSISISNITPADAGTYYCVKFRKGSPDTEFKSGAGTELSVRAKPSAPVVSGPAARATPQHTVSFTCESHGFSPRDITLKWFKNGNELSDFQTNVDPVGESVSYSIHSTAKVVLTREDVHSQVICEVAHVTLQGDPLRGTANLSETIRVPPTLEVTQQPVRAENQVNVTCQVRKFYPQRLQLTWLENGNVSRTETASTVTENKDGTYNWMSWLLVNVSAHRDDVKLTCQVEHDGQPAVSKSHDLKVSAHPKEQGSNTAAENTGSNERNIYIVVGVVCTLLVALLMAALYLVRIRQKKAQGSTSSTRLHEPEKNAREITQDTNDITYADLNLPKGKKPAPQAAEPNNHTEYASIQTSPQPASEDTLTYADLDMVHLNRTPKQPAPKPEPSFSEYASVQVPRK
Nature of the experiment: flow cytometry, blockade of DyLight488-hCD47/Fc binding to THP-1 cells. How it is done: as §1, with “For this purpose, THP-1 (ATCC TIB-202) and U-937 (ATCC CRL-1593.2) monocyte cell lines were used as” for “To assess”, “source” for “blocking ability”, “hSIRPα in the assay. THP-1 and U-937” for “hSIRPα.50A, CD14+ enriched monocytes”, “FACSCanto II” for “FACSVerse”
as §2

Experiment [4] deals with T2, human SIRPα variant 1. The experiment can be described thus: CELISA, CHO-K1 transfectants, point mutant study. As to the method: To pinpoint the amino acids for interaction of hSIRPα.50A with the IgV domain, several point mutants of hSIRPαV1 were generated based on single amino acid differences between hSIRPαV1/V2 and hSIRPβ1. […] Amino acids in the hSIRPα IgV domain that are altered in hSIRPβ1 were mutated by using the QuikChange II Site-Directed Mutagenesis Kit (Stratagene) and the full length hSIRPαV1 sequence (SEQ ID NO: 33) as donor cDNA. Binding of hSIRPα.50A to hSIRPαV1 point mutants was tested using CELISA. To this end, CHO-K1 cells were transiently transfected, using Lipofectamine 2000, with cDNA encoding the full length open reading frame of hSIRPαV1 and mutants thereof, and hSIRPβ1 subcloned into the pCI-neo vector. Transfected cells were seeded in culture medium (DMEM-F12 (Gibco) supplemented with 5% New Born Calf Serum (BioWest) and Pen/Strep (Gibco)) in 96-well flat-bottom tissue culture plates and incubated at 37° C., 5% CO₂ and 95% humidity for 24 hours. Subsequently, culture medium was removed and cells were incubated for 1 hour at 37° C., 5% CO₂ and 95% humidity with purified hSIRPα antibodies (used at 10 μg/mL and dilutions thereof). Next, cells were washed with PBS-T and incubated for 1 hour at 37° C., 5% CO₂ and 95% humidity with goat-anti-mouse IgG-HRP (Southern Biotech). […] Reactions were stopped with 0.5 M H₂SO₄ and absorbances were read at 450 and 610 nm. […]

The target in experiment [5] is T1, hSIRPα expressed on primary human cells. Nature of the experiment: flow cytometry on CD14+ enriched monocytes, human donor 1; blocked ligand: DyLight 488-labeled recombinant hCD47/Fc. How it is done: as §1, with “hSIRPα.40A,” for “hSIRPα.50A,”, “hSIRPα.40A” for “hSIRPα.50A”, “(20” for “(200”, “LLC). […] IC50 values represent the concentration at which half of the inhibition is observed.” for “LLC).”

T1 sequence (P78324 31-504): as the sequence (P78324 31-504 limits assumed, change not shown) above

B1: hSIRPα.50A (antibody, V domains shown)
VH: QVQLQQSGPELVKPGASVRISCKASGFTFTNYYIHWVKQRPGQGLEWIGWIYPGNVNTKYNEKFKAKATLTADKSSTTAYMQLSSLASEDSAVYFCARPTIIATDFDVWGAGTTVTVSS
VL: DIVMTQSHKFMSTSVGDRVNITCKASQGVGTAVGWYQQKPGQSPRLLIYWASTRHTGVPDRFTGSGSGTDFSLAISNVQSEDLADYFCQQYSTYPFTFGGGTNLEIK
notes: light chain constant domain not tied; also called mouse hSIRPα.50A; hSIRPα.50A.mIgG1
As for B1, the figures for the IC50 in experiment [1], in experiment [2] and in experiment [3] were 4.62 nM, 7.16 nM and 4.61 nM, respectively. For the same molecule, the EC50 in experiment [4] came to 0.535 nM.

B2: hSIRPα.40A (antibody, mouse IgG1, kappa, V domains shown)
VH: EVQFQQSGTVLARPGTSVKMSCKASGSTFTSYWMHWVKQGPGQGLQWIGAIYPVNNDTTYNQKFKGKAELTVVTSTSTAYMEVSSLTNEDSAVYYCTRSFYYSLDAAWFVYWGQGTLVTVSA
VL: DIQMTQSPSSLSASLGERVSLTCRASQDIGSRLNWLQQEPDGTIKRLIYATSSLDSGVPKRFSGSRSGSDYSLTISGLESEDFVDYYCLQYASSPFTFGGGTKLEINR
notes: mouse antibody, full chains without signal peptide; also called mouse hSIRPα.40A
As to B2, in experiment [5], the “IC50 (read off the curve)” value was about 0.4 nM.

What is called IC50 is the midpoint of a concentration-inhibition curve. Read a high IC50 as a need for much substance. The EC50 is the concentration that produces a half-maximal response.

Source of the values: patent US20180312587A1 (ADURO BIOTECH HOLDINGS EUROPE B V, published 2018).
